Target: eIF4E (UniProt P63074)
Assay: anti-eIF4E IP, anti-histidine blot
Settings: reference: wild type Hsp27; sites S15,S78,S82

Hsp27 (from UniProt P04792) 3A (S15A/S78A/S82A)
binding against the reference: weaker
